Measured values as given in the supplement of paper PMC11780869.

Tested on: Bacillus subtilis
Assay: cleaved RNA product abundance (RNA/gDNA barcode ratio) relative to median wild-type variant (ratio to wild type); higher = more accumulation of the downstream cleavage product
Conditions: cleavage site: cggR-gapA (positions -7 to +36 mutated)
Summary of the method: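 Cleaved product abundance was measured with barcoded reporter mRNAs (truncated aprE or tetM) carrying mutagenized RNase Y cleavage-site windows in the B. subtilis chromosome. Cultures in LB at 37°C grew from OD600 0.0003 to 0.3. Gel-selected cleaved RNA was reverse transcribed and barcode-sequenced with genomic DNA barcodes, and the RNA:gDNA barcode ratio per construct was scaled to the median construct bearing the unmutated site.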

[1] = experiment (reporter, strain, medium): exp 4a: truncated aprE reporter, strain BJT201 with 2% xylose (RNase J1 expressed)
[2] = experiment (reporter, strain, medium): exp 2b: truncated aprE reporter, strain BJT200

Sequence | cleaved RNA product abundance [1] | cleaved RNA product abundance [2] | cleaved RNA product abundance (experiment (reporter, strain, medium): exp 6: tetM reporter, strain 168)
ACAGACGAAGGAGCCGCAAATAAGTTATTAAGGGATGAATAATCCCCCAATATAAATATCTCTCACTTATTTAAA | 0.23 | – | –
ACAGACGAAGGAGCCGCAAATAAGTTATTAAGGGATGAATAATCCCTAAATATAAATATCTCTCACTTATTTAAA | 0.865 | 0.668 | –
ACAGACGAAGGAGCCGCAAATAAGTTATTAAGGGATGAATAATCCCTCAAAATAAATATCTCTCACTTATTTAAA | 0.322 | 0.34 | –
ACAGACGAAGGAGCCGCAAATAAGTTATTAAGGGATGAATAATCCCTCAACATAAATATCTCTCACTTATTTAAA | 0.401 | – | –
ACAGACGAAGGAGCCGCAAATAAGTTATTAAGGGATGAATAATCCCTCAAGATAAATATCTCTCACTTATTTAAA | 0.373 | – | –
ACAGACGAAGGAGCCGCAAATAAGTTATTAAGGGATGAATAATCCCTCAATAAAAATATCTCTCACTTATTTAAA | 0.143 | – | –
ACAGACGAAGGAGCCGCAAATAAGTTATTAAGGGATGAATAATCCCTCAATACAAATATCTCTCACTTATTTAAA | 0.106 | – | –
ACAGACGAAGGAGCCGCAAATAAGTTATTAAGGGATGAATAATCCCTCAATATAAACATCTCTCACTTATTTAAA | 0.822 | 0.822 | –
ACAGACGAAGGAGCCGCAAATAAGTTATTAAGGGATGAATAATCCCTCAATATAAAGATCTCTCACTTATTTAAA | 0.565 | 0.535 | –
ACAGACGAAGGAGCCGCAAATAAGTTATTAAGGGATGAATAATCCCTCAATATAAATAACTCTCACTTATTTAAA | 0.44 | – | –
ACAGACGAAGGAGCCGCAAATAAGTTATTAAGGGATGAATAATCCCTCAATATAAATACCTCTCACTTATTTAAA | 0.538 | – | –
ACAGACGAAGGAGCCGCAAATAAGTTATTAAGGGATGAATAATCCCTCAATATAAATATATCTCACTTATTTAAA | 0.814 | – | –
ACAGACGAAGGAGCCGCAAATAAGTTATTAAGGGATGAATAATCCCTCAATATAAATATCTCTCACTTATTTAAA | 0.932 | 0.972 | 1.07
ACAGACGAAGGAGCCGCAAATAAGTTATTAAGGGATGAATAATCCCTCAATATAAATGTCTCTCACTTATTTAAA | 0.45 | – | –
ACAGACGAAGGAGCCGCAAATAAGTTATTAAGGGATGAATAATCCCTCAATATAAATTTCTCTCACTTATTTAAA | 0.862 | – | –
ACAGACGAAGGAGCCGCAAATAAGTTATTAAGGGATGAATAATCCCTCAATATAATTATCTCTCACTTATTTAAA | 0.477 | 0.515 | –
ACAGACGAAGGAGCCGCAAATAAGTTATTAAGGGATGAATAATCCCTCAATATACATATCTCTCACTTATTTAAA | 0.64 | 0.727 | –
ACAGACGAAGGAGCCGCAAATAAGTTATTAAGGGATGAATAATCCCTCAATATAGATATCTCTCACTTATTTAAA | 0.649 | 0.715 | –
ACAGACGAAGGAGCCGCAAATAAGTTATTAAGGGATGAATAATCCCTCAATATATATATCTCTCACTTATTTAAA | 0.9 | – | –
ACAGACGAAGGAGCCGCAAATAAGTTATTAAGGGATGAATAATCCCTCAATATTAATATCTCTCACTTATTTAAA | 0.156 | – | –

Sequence | cleaved RNA product abundance [1] | cleaved RNA product abundance [2] | cleaved RNA product abundance (experiment (reporter, strain, medium): exp 6: tetM reporter, strain 168)
ACAGACGAAGGAGCCGCAAATAAGTTATTAAGGGATGAATAATCCCTCAATGTAAATATCTCTCACTTATTTAAA | 0.178 | – | –
ACAGACGAAGGAGCCGCAAATAAGTTATTAAGGGATGAATAATCCCTCAATTTAAATATCTCTCACTTATTTAAA | 0.136 | – | –
ACAGACGAAGGAGCCGCAAATAAGTTATTAAGGGATGAATAATCCCTCACTATAAATATCTCTCACTTATTTAAA | 0.218 | 0.193 | –
ACAGACGAAGGAGCCGCAAATAAGTTATTAAGGGATGAATAATCCCTCAGTATAAATATCTCTCACTTATTTAAA | 0.303 | – | –
ACAGACGAAGGAGCCGCAAATAAGTTATTAAGGGATGAATAATCCCTCATTATAAATATCTCTCACTTATTTAAA | 0.356 | – | –
ACAGACGAAGGAGCCGCAAATAAGTTATTAAGGGATGAATAATCCCTCCATATAAATATCTCTCACTTATTTAAA | 0.333 | 0.274 | –
ACAGACGAAGGAGCCGCAAATAAGTTATTAAGGGATGAATAATCCCTCGATATAAATATCTCTCACTTATTTAAA | – | 0.459 | –
ACAGACGAAGGAGCCGCAAATAAGTTATTAAGGGATGAATAATCCCTCTATATAAATATCTCTCACTTATTTAAA | 0.439 | 0.34 | –
ACAGACGAAGGAGCCGCAAATAAGTTATTAAGGGATGAATAATCCCTTAATATAAATATCTCTCACTTATTTAAA | 0.452 | – | –
ACAGACGAAGGAGCCGCAAATAAGTTATTAAGGGATGAATAATCCGTCAATATAAATATCTCTCACTTATTTAAA | 0.299 | – | –
ACAGACGAAGGAGCCGCAAATAAGTTATTAAGGGATGAATAATCCTTCAATATAAATATCTCTCACTTATTTAAA | – | 0.395 | –
ACAGACGAAGGAGCCGCAAATAAGTTATTAAGGGATGAATAATCGCTCAATATAAATATCTCTCACTTATTTAAA | 0.121 | – | –
ACAGACGAAGGAGCCGCAAATAAGTTATTAAGGGATGAATAATCTCTCAATATAAATATCTCTCACTTATTTAAA | 0.758 | 0.613 | –
ACAGACGAAGGAGCCGCAAATAAGTTATTAAGGGATGAATAATGCCTCAATATAAATATCTCTCACTTATTTAAA | 0.145 | – | –
ACAGACGAAGGAGCCGCAAATAAGTTATTAAGGGATGAATAATTCCTCAATATAAATATCTCTCACTTATTTAAA | 0.547 | – | –
ACAGACGAAGGAGCCGCAAATAAGTTATTAAGGGATGAATACTCCCTCAATATAAATATCTCTCACTTATTTAAA | 0.538 | 0.682 | –
ACAGACGAAGGAGCCGCAAATAAGTTATTAAGGGATGAATAGTCCCTCAATATAAATATCTCTCACTTATTTAAA | 0.887 | 0.852 | –
ACAGACGAAGGAGCCGCAAATAAGTTATTAAGGGATGAATATTCCCTCAATATAAATATCTCTCACTTATTTAAA | 1.07 | 0.769 | –
ACAGACGAAGGAGCCGCAAATAAGTTATTAAGGGATGAATCATCCCTCAATATAAATATCTCTCACTTATTTAAA | 0.899 | 0.769 | –
ACAGACGAAGGAGCCGCAAATAAGTTATTAAGGGATGAATTATCCCTCAATATAAATATCTCTCACTTATTTAAA | 0.737 | 0.711 | –
